Assays:
Experiment in all cases: cell-based or functional assay
CXCL9 = biological target: T1, CXCL9
T1 sequence (Q07325 23-125, species assumed, looked up): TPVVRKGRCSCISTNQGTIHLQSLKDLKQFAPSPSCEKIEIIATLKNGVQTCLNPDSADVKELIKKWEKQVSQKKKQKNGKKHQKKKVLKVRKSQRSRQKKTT

CXCL10 = biological target: CXCL10
CXCL11 = biological target: T2, CXCL11
T2 sequence (O14625 22-94, species assumed, looked up): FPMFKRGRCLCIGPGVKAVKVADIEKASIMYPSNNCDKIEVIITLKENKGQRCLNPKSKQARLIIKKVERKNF

Measured: in vitro enzymatic cleavage; T cell migration assay

MMP9 (Example 10, in vitro enzymatic analyses) (enzyme), sequence (P41245 108-730): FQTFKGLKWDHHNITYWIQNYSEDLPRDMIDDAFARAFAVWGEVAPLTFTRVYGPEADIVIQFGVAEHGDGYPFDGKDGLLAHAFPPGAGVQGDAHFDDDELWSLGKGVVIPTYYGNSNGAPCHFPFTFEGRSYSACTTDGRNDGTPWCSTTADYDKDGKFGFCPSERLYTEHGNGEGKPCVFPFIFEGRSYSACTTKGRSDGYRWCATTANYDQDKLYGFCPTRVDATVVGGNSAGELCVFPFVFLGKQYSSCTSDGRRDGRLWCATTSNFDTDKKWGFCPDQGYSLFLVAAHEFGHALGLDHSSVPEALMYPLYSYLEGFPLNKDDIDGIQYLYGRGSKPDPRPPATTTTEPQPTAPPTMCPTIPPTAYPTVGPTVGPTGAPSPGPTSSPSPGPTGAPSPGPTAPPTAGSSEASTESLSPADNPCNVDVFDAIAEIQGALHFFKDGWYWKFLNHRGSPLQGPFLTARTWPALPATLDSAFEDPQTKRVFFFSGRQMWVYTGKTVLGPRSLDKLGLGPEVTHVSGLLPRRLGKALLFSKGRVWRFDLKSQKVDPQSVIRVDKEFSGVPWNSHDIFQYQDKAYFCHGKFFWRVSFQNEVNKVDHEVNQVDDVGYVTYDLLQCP
CXCL10, sequence (P02778 22-98): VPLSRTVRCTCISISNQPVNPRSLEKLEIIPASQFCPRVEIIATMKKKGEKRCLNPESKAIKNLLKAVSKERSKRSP

MMP9 (Example 10, in vitro enzymatic analyses) (enzyme)
< 88%: all assays above
